Measurements: patent US20230151068A1

Target: biotinylated His-Avi-TEAD (194-411) (UniProt P28347)
Assay: SPR, biotinylated TEAD immobilized on the chip, Siderocalin-YAP as analyte

Sequence of Siderocalin-fused YAP (50-171) (P80188 other isoform, or with tags, fused parts or gaps): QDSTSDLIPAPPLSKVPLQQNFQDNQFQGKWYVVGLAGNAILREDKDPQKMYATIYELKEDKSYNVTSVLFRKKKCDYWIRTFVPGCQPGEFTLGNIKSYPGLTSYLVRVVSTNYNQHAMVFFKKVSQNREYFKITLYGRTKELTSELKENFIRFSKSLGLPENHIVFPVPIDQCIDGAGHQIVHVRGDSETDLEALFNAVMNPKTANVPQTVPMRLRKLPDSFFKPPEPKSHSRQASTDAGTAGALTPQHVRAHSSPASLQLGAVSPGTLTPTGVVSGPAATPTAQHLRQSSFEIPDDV

Siderocalin-fused YAP (50-171) (from UniProt P80188 21-198; P46937 50-171)
Kd: 570 nM
